Test results from patent publication US20170008943A1 (Novo Nordisk, published 2017).
*1 amine or outer side, *2 acyl side, *3 side chain or, on linkers, in order; H or OH if unused. Side-chain parts run from the residue outwards. [ ]: non-standard residue; d: D form. The star is where a group is joined. γGlu = O=C(O)[C@H](CCC(=O)[*:2])N[*:1]; Desaminohistidyl = O=C(CCc1c[nH]cn1)*

What was measured:
human glucagon receptor [1] = target: T1, human glucagon receptor (human, UniProt P47871 26-477); assay: cell-based or functional assay
human glucagon receptor [2] = target: T1, human glucagon receptor; assay: displacement of 125I-glucagon from BHK membranes with human glucagon receptor (SPA), Assay (II)(b)

T1 sequence (P47871 26-477): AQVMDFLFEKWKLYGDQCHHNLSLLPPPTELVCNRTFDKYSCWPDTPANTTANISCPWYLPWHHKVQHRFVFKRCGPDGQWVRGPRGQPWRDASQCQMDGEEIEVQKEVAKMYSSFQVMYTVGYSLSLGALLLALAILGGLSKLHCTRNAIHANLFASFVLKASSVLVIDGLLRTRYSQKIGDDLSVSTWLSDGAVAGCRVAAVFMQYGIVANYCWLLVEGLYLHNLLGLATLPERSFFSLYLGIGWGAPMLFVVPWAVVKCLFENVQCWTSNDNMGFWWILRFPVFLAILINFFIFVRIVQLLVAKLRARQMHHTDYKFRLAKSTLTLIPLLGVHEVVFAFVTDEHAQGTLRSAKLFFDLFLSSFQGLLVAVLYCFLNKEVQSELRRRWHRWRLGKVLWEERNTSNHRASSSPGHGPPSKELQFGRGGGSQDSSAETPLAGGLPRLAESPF

B1: N^ε16-[(4S)-4-[[(4S)-4-[[(4S)-4-[[(4S)-4-acetamido-4-carboxybutanoyl]amino]-4-carboxybutanoyl]amino]-4-carboxybutanoyl]amino]-4-carboxybutanoyl]-[Imp1, His3, … (peptide)
peptide: [Desaminohistidyl]SHGTFTSDYSKYLEK([γGlu-γGlu-γGlu-γGlu-Ac])RRAQEFVQWLLST-OH
SMILES: CC(=O)N[C@@H](CCC(=O)N[C@@H](CCC(=O)N[C@@H](CCC(=O)N[C@@H](CCC(=O)NCCCC[C@H](NC(=O)[C@H](CCC(=O)O)NC(=O)[C@H](CC(C)C)NC(=O)[C@H](Cc1ccc(O)cc1)NC(=O)[C@H](CCCCN)NC(=O)[C@H](CO)NC(=O)[C@H](Cc1ccc(O)cc1)NC(=O)[C@H](CC(=O)O)NC(=O)[C@H](CO)NC(=O)[C@@H](NC(=O)[C@H](Cc1ccccc1)NC(=O)[C@@H](NC(=O)CNC(=O)[C@H](Cc1c[nH]cn1)NC(=O)[C@H](CO)NC(=O)CCc1c[nH]cn1)[C@@H](C)O)[C@@H](C)O)C(=O)N[C@@H](CCCNC(=N)N)C(=O)N[C@@H](CCCNC(=N)N)C(=O)N[C@@H](C)C(=O)N[C@@H](CCC(N)=O)C(=O)N[C@@H](CCC(=O)O)C(=O)N[C@@H](Cc1ccccc1)C(=O)N[C@H](C(=O)N[C@@H](CCC(N)=O)C(=O)N[C@@H](Cc1c[nH]c2ccccc12)C(=O)N[C@@H](CC(C)C)C(=O)N[C@@H](CC(C)C)C(=O)N[C@@H](CO)C(=O)N[C@H](C(=O)O)[C@@H](C)O)C(C)C)C(=O)O)C(=O)O)C(=O)O)C(=O)O
notes: Imp written X under substitutions
EC50 hGlucagonR (pM), CRE luciferase reporter in BHK cells (human glucagon receptor [1]): 105 pM | IC50 (human glucagon receptor [2]): 24.4 nM

B2: N^ε24-[(4S)-4-[[(4S)-4-[[(4S)-4-[[(4S)-4-acetamido-4-carboxybutanoyl]amino]-4-carboxybutanoyl]amino]-4-carboxybutanoyl]amino]-4-carboxybutanoyl]-[Imp1, His3, … (peptide)
peptide: [Desaminohistidyl]SHGTFTSDYSKYLDARRAQDFVK([γGlu-γGlu-γGlu-γGlu-Ac])WLLST-OH
SMILES: CC(=O)N[C@@H](CCC(=O)N[C@@H](CCC(=O)N[C@@H](CCC(=O)N[C@@H](CCC(=O)NCCCC[C@H](NC(=O)[C@@H](NC(=O)[C@H](Cc1ccccc1)NC(=O)[C@H](CC(=O)O)NC(=O)[C@H](CCC(N)=O)NC(=O)[C@H](C)NC(=O)[C@H](CCCNC(=N)N)NC(=O)[C@H](CCCNC(=N)N)NC(=O)[C@H](C)NC(=O)[C@H](CC(=O)O)NC(=O)[C@H](CC(C)C)NC(=O)[C@H](Cc1ccc(O)cc1)NC(=O)[C@H](CCCCN)NC(=O)[C@H](CO)NC(=O)[C@H](Cc1ccc(O)cc1)NC(=O)[C@H](CC(=O)O)NC(=O)[C@H](CO)NC(=O)[C@@H](NC(=O)[C@H](Cc1ccccc1)NC(=O)[C@@H](NC(=O)CNC(=O)[C@H](Cc1c[nH]cn1)NC(=O)[C@H](CO)NC(=O)CCc1c[nH]cn1)[C@@H](C)O)[C@@H](C)O)C(C)C)C(=O)N[C@@H](Cc1c[nH]c2ccccc12)C(=O)N[C@@H](CC(C)C)C(=O)N[C@@H](CC(C)C)C(=O)N[C@@H](CO)C(=O)N[C@H](C(=O)O)[C@@H](C)O)C(=O)O)C(=O)O)C(=O)O)C(=O)O
notes: as for B1
EC50 hGlucagonR (pM), CRE luciferase reporter in BHK cells (human glucagon receptor [1]): 4 pM | IC50 (human glucagon receptor [2]): 0.9 nM

B3: N^ε24-[(4S)-4-[[(4S)-4-[[(4S)-4-[[(4S)-4-acetamido-4-carboxybutanoyl]amino]-4-carboxybutanoyl]amino]-4-carboxybutanoyl]amino]-4-carboxybutanoyl]-[Imp1, His3, … (peptide)
peptide: [Desaminohistidyl]SHGTFTSDYSKYLESRRAQDFVK([γGlu-γGlu-γGlu-γGlu-Ac])WLLST-OH
SMILES: CC(=O)N[C@@H](CCC(=O)N[C@@H](CCC(=O)N[C@@H](CCC(=O)N[C@@H](CCC(=O)NCCCC[C@H](NC(=O)[C@@H](NC(=O)[C@H](Cc1ccccc1)NC(=O)[C@H](CC(=O)O)NC(=O)[C@H](CCC(N)=O)NC(=O)[C@H](C)NC(=O)[C@H](CCCNC(=N)N)NC(=O)[C@H](CCCNC(=N)N)NC(=O)[C@H](CO)NC(=O)[C@H](CCC(=O)O)NC(=O)[C@H](CC(C)C)NC(=O)[C@H](Cc1ccc(O)cc1)NC(=O)[C@H](CCCCN)NC(=O)[C@H](CO)NC(=O)[C@H](Cc1ccc(O)cc1)NC(=O)[C@H](CC(=O)O)NC(=O)[C@H](CO)NC(=O)[C@@H](NC(=O)[C@H](Cc1ccccc1)NC(=O)[C@@H](NC(=O)CNC(=O)[C@H](Cc1c[nH]cn1)NC(=O)[C@H](CO)NC(=O)CCc1c[nH]cn1)[C@@H](C)O)[C@@H](C)O)C(C)C)C(=O)N[C@@H](Cc1c[nH]c2ccccc12)C(=O)N[C@@H](CC(C)C)C(=O)N[C@@H](CC(C)C)C(=O)N[C@@H](CO)C(=O)N[C@H](C(=O)O)[C@@H](C)O)C(=O)O)C(=O)O)C(=O)O)C(=O)O
notes: as for B1
EC50 hGlucagonR (pM), CRE luciferase reporter in BHK cells (human glucagon receptor [1]): 12 pM | IC50 (human glucagon receptor [2]): 6.2 nM

B4: N^ε20-[(4S)-4-[[(4S)-4-[[(4S)-4-[[(4S)-4-acetamido-4-carboxybutanoyl]amino]-4-carboxybutanoyl]amino]-4-carboxybutanoyl]amino]-4-carboxybutanoyl]-[Imp1, His3, … (peptide)
peptide: [Desaminohistidyl]SHGTFTSDYSKYLESRRAK([γGlu-γGlu-γGlu-γGlu-Ac])EFVQWLLST-OH
SMILES: CC(=O)N[C@@H](CCC(=O)N[C@@H](CCC(=O)N[C@@H](CCC(=O)N[C@@H](CCC(=O)NCCCC[C@H](NC(=O)[C@H](C)NC(=O)[C@H](CCCNC(=N)N)NC(=O)[C@H](CCCNC(=N)N)NC(=O)[C@H](CO)NC(=O)[C@H](CCC(=O)O)NC(=O)[C@H](CC(C)C)NC(=O)[C@H](Cc1ccc(O)cc1)NC(=O)[C@H](CCCCN)NC(=O)[C@H](CO)NC(=O)[C@H](Cc1ccc(O)cc1)NC(=O)[C@H](CC(=O)O)NC(=O)[C@H](CO)NC(=O)[C@@H](NC(=O)[C@H](Cc1ccccc1)NC(=O)[C@@H](NC(=O)CNC(=O)[C@H](Cc1c[nH]cn1)NC(=O)[C@H](CO)NC(=O)CCc1c[nH]cn1)[C@@H](C)O)[C@@H](C)O)C(=O)N[C@@H](CCC(=O)O)C(=O)N[C@@H](Cc1ccccc1)C(=O)N[C@H](C(=O)N[C@@H](CCC(N)=O)C(=O)N[C@@H](Cc1c[nH]c2ccccc12)C(=O)N[C@@H](CC(C)C)C(=O)N[C@@H](CC(C)C)C(=O)N[C@@H](CO)C(=O)N[C@H](C(=O)O)[C@@H](C)O)C(C)C)C(=O)O)C(=O)O)C(=O)O)C(=O)O
notes: as for B1
EC50 hGlucagonR (pM), CRE luciferase reporter in BHK cells (human glucagon receptor [1]): 41 pM | IC50 (human glucagon receptor [2]): 7.6 nM

B5: N^ε24-[(4S)-4-[[(4S)-4-[[(4S)-4-[[(4S)-4-acetamido-4-carboxybutanoyl]amino]-4-carboxybutanoyl]amino]-4-carboxybutanoyl]amino]-4-carboxybutanoyl]-[Imp1, His3, … (peptide)
peptide: [Desaminohistidyl]SHGTFTSDYSKYLESRRAQEFVK([γGlu-γGlu-γGlu-γGlu-Ac])WLLET-OH
SMILES: CC(=O)N[C@@H](CCC(=O)N[C@@H](CCC(=O)N[C@@H](CCC(=O)N[C@@H](CCC(=O)NCCCC[C@H](NC(=O)[C@@H](NC(=O)[C@H](Cc1ccccc1)NC(=O)[C@H](CCC(=O)O)NC(=O)[C@H](CCC(N)=O)NC(=O)[C@H](C)NC(=O)[C@H](CCCNC(=N)N)NC(=O)[C@H](CCCNC(=N)N)NC(=O)[C@H](CO)NC(=O)[C@H](CCC(=O)O)NC(=O)[C@H](CC(C)C)NC(=O)[C@H](Cc1ccc(O)cc1)NC(=O)[C@H](CCCCN)NC(=O)[C@H](CO)NC(=O)[C@H](Cc1ccc(O)cc1)NC(=O)[C@H](CC(=O)O)NC(=O)[C@H](CO)NC(=O)[C@@H](NC(=O)[C@H](Cc1ccccc1)NC(=O)[C@@H](NC(=O)CNC(=O)[C@H](Cc1c[nH]cn1)NC(=O)[C@H](CO)NC(=O)CCc1c[nH]cn1)[C@@H](C)O)[C@@H](C)O)C(C)C)C(=O)N[C@@H](Cc1c[nH]c2ccccc12)C(=O)N[C@@H](CC(C)C)C(=O)N[C@@H](CC(C)C)C(=O)N[C@@H](CCC(=O)O)C(=O)N[C@H](C(=O)O)[C@@H](C)O)C(=O)O)C(=O)O)C(=O)O)C(=O)O
notes: as for B1
EC50 hGlucagonR (pM), CRE luciferase reporter in BHK cells (human glucagon receptor [1]): 17 pM | IC50 (human glucagon receptor [2]): 8.7 nM
